Columns and labels:
PlGF = biological target: T1, PlGF (UniProt P49763-2 P49763-2:19-149); experiment: filter; no binding to PlGF homodimer; conditions: tags: carrier-free, E. coli expressed, R & D Systems; chain copies: 2 (stated homodimer)
T1 sequence: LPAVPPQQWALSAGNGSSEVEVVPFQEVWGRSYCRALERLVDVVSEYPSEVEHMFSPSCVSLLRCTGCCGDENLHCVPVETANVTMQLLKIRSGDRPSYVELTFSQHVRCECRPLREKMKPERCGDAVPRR
Procedure: (§1) Nucleic Acid Ligands radiolabeled during transcription by incorporation of α-[³²P]-labeled NTPs, or after synthesis using γ-[³²P]-ATP and T4 polynucleotide kinase, were incubated in low concentration (between 20 and 70 pM) with varying concentrations of VEGF or other growth factors at 37° C. for 15 minutes. Incubations were in TBS, PBS, or HEPES-buffered saline (HBS), pH 7.4, with or without the addition of supplemental divalent cations. Samples were passed through prewashed 0.45 μ Type HA filters (Millipore) followed by a 5-10 ml wash with binding buffer. Filters were immersed in scintillant and counted to quantitate the amount of protein-bound RNA retained by each filter. The equilibrium dissociation constant (KD) of Nucleic Acid Ligand binding to a specific protein was calculated from the data points as described in Green et al. (1996) Biochem. 35: 14413-14424.
VEGF is a highly conserved protein across species, the human VEGF₁₆₅ and mouse VEGF₁₆₄ isoforms showing 88% sequence identity. The truncated, 2′-OMe-substituted ligands bound equally well to human and murine VEGF. […] Heterodimers between VEGF and PIGF have recently been isolated from the supernatants of both normal and tumor-derived cell lines, and such heterodimers show activity in binding to one of two high affinity VEGF receptors and in inducing responses in cultured endothelial cells. The biological relevance of VEGF/PIGF heterodimers is unknown. […] Alternatively, the structure of the VEGF subunit may be altered by participation in a heterodimer with PIGF with consequent distortion of the Nucleic Acid Ligand binding surface.

VEGF165 [1] = biological target: T2, VEGF165 (Homo sapiens, UniProt P15692-4 P15692-4:27-191); experiment: filter; s.d. 50; 37 C; divalent cation independent; conditions: tags: carrier-free, Sf 21 insect cell expressed, R & D Systems; chain copies: 2 (inferred)
Procedure: as §1
(§2) 2′OH nucleotides are indicated in bold, and 2′OMe nucleotides are indicated in plain text.
Target sequence in this assay (P15692 other isoform, or with tags, fused parts or gaps): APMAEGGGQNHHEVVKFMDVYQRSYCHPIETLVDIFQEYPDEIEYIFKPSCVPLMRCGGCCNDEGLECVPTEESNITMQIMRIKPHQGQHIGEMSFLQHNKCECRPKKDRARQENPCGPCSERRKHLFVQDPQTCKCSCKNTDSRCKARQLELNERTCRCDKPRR

VEGF121 = VEGF121 (Homo sapiens, UniProt P15692-9 P15692-9:27-147); experiment: filter; no measurable affinity; conditions: tags: carrier-free, E. coli expressed, R & D Systems; chain copies: 2 (inferred)
VEGF164 [2] = biological target: T3, VEGF164 (Mus musculus, UniProt Q00731-2 Q00731-2:27-190); experiment: filter; bound equally well to human and murine VEGF; conditions: tags: carrier-free, Sf21-expressed, R&D Systems; chain copies: 2
T3 sequence: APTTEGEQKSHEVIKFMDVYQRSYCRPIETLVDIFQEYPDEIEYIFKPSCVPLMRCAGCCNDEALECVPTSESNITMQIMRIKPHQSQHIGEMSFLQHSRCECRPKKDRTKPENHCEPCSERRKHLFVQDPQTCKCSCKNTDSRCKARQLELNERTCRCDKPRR
Procedure: as §1
(§3) VEGF is a highly conserved protein across species, the human VEGF₁₆₅ and mouse VEGF₁₆₄ isoforms showing 88% sequence identity. The truncated, 2′-OMe-substituted ligands bound equally well to human and murine VEGF. […] Heterodimers between VEGF and PIGF have recently been isolated from the supernatants of both normal and tumor-derived cell lines, and such heterodimers show activity in binding to one of two high affinity VEGF receptors and in inducing responses in cultured endothelial cells. […]

VEGF165 [3] = biological target: T2, VEGF165; experiment: filter; s.d. 36; 37 C; divalent cation independent; conditions: tags: carrier-free, Sf 21 insect cell expressed, R & D Systems; chain copies: 2 (inferred)
Procedure: as §1, §2

VEGF165 [4] = biological target: T2, VEGF165; experiment: filter; 37 C; conditions: tags: carrier-free, Sf 21 insect cell expressed, R & D Systems; chain copies: 2 (inferred)
Procedure: as §1
Stabilization of oligonucleotides to nucleases is likely to be critical to their success as therapeutic or diagnostic agents. Unfortunately, 2′-OMe-modified nucleoside triphosphates are not generally accepted as substrates by RNA polymerases under standard reaction conditions. However, 2′-OMe purines may be introduced into a specific oligonucleotide by chemical synthesis. […] To identify those purine positions for which 2′-OMe substitution is compatible with high affinity binding to VEGF, several syntheses of ligands t2, t22 and t44 were prepared in which five or six purines at a time were partially substituted with the modified nucleotide (described in Example 3). Affinity selection of each partially substituted library was used to isolate those molecules that retained substantial affinity for VEGF.

VEGF165 [5] = biological target: T2, VEGF165; experiment: filter; 37 C; variable region ends GGCT in table, GGGU in listing; conditions: tags: carrier-free, Sf 21 insect cell expressed, R & D Systems; chain copies: 2 (inferred)
Procedure: as §1

VEGF165 [6] = biological target: T2, VEGF165; experiment: filter; 37 C; variable region starts CCCC in table, CGCC in listing; conditions: tags: carrier-free, Sf 21 insect cell expressed, R & D Systems; chain copies: 2 (inferred)
Procedure: as §1

VEGF165 [7] = biological target: T2, VEGF165; experiment: filter; s.d. 11; text gives 49 pM; 37 C; calcium required; conditions: tags: carrier-free, Sf 21 insect cell expressed, R & D Systems; chain copies: 2 (inferred)
Procedure: as §1, §2

VEGF164 [8] = biological target: T3, VEGF164; experiment: filter; binds equally well to human and murine VEGF; conditions: tags: carrier-free, Sf 21 insect cell expressed, R & D Systems; chain copies: 2 (inferred)
Procedure: as §1, §3

VEGF165 [9] = biological target: T2, VEGF165; experiment: filter; divalent cations replaced with EGTA; CaCl2 restores binding, MgCl2 does not; conditions: tags: carrier-free, Sf 21 insect cell expressed, R & D Systems; chain copies: 2 (inferred)
Procedure: as §1
Ligands in Families 1 and 2 were selected in the presence of magnesium cations while Family 3 ligands were selected in a buffer containing both magnesium and calcium. Since divalent cations may contribute to RNA/protein interactions through nonspecific or specific stabilization of high affinity RNA structures, we asked whether magnesium and/or calcium were required for the high affinity binding of representative ligands to VEGF.

Sequence of VEGF121 (P15692 other isoform, or with tags, fused parts or gaps): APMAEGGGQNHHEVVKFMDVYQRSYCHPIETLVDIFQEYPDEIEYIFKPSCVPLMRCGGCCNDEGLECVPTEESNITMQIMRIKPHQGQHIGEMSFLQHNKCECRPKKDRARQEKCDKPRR

GCGAACCGAUGGAAUUUUUGGACGCUCGC (ssRNA, 2'-F pyrimidines, 2'-OMe purines except 2'-OH A5, G20)
binding result (PlGF): no binding | Kd (VEGF165 [1]): 0.14 nM | binding result (VEGF121): no binding

GCGAACCGAUGGAAUUUUUGGACGCUCGC (ssRNA, 2'-F pyrimidines; 2'-OMe purines except 2'-OH A5 and G20)
binding result (VEGF164 [2]): binds

GCGGUAGGAAGAAUUGGAAGCGC (ssRNA, 2'-F pyrimidines, 2'-OMe purines except 2'-OH G4, A6)
binding result (PlGF): no binding | Kd (VEGF165 [3]): 0.067 nM | binding result (VEGF121): no binding

GACGAUGCGGUAGGAAGAAUUGGAAGCGC (ssRNA, 2'-F pyrimidines, 2'-OMe purines except 2'-OH G10, G22) [t22OMe (OH-10,22)]
Kd (VEGF165 [4]): 4 nM

B1: VP40.39 (ssRNA)
RNA: GGGAGGACGAUGCGGCAGUUAAUUAACUUGAGUUGUGAUGUGUGUCGUUAUGGGUCAGACGACUCGCCCGA
modifications: 2'-F pyrimidines
Kd (VEGF165 [5]): 73 nM

GACGAUGCGGUAGGAAGAAUUGGAAGCGC (ssRNA, 2'-F pyrimidines, 2'-OMe purines except 2'-OH G10, A12, G22) [t22OMe (OH-10,12,22)]
Kd (VEGF165 [4]): 0.01 nM

B2: VP30.29 (ssRNA)
RNA: GGGAGGACGAUGCGGCGCCACUUUGGAAGUUAUUGAAUUUCGCGUCAGACGACUCGCCCGA
modifications: 2'-F pyrimidines
Kd (VEGF165 [6]): 0.007 nM

GGCGAACCGAUGGAAUUUUUGGACGCUCGCC (ssRNA, 2'-F pyrimidines, 2'-OMe purines except 2'-OH A6, G21) [t2OMe (OH-6,21)]
Kd (VEGF165 [4]): 0.06 nM

GGCGAACCGAUGGAAUUUUUGGACGCUCGCC (ssRNA, 2'-F pyrimidines, 2'-OMe purines except 2'-OH G21) [t2OMe (OH-21)]
Kd (VEGF165 [4]): 20 nM

GGCGAACCGAUGGAAUUUUUGGACGCUCGCC (ssRNA, 2'-F pyrimidines, 2'-OMe purines except 2'-OH A6) [t2OMe (OH-6)]
Kd (VEGF165 [4]): 0.5 nM

GACGAUGCGGUAGGAAGAAUUGGAAGCGC (ssRNA, 2'-F pyrimidines, 2'-OMe purines except 2'-OH G10, A12) [t22OMe (OH-10,12)]
Kd (VEGF165 [4]): 0.02 nM

CGGAAUCAGUGAAUGCUUAUACAUCCG (ssRNA, 2'-F pyrimidines, 2'-OMe purines except 2'-OH A4, A5) [t44-OMe]
Kd (VEGF165 [7]): 0.051 nM | binding result (PlGF): no binding | binding result (VEGF164 [8]): binds | binding result (VEGF121): no binding | Kd (VEGF165 [9]): > 100 nM

GCGGAAUCAGUGAAUGCUUAUACAUCCGC (ssRNA, 2'-F pyrimidines, 2'-OMe purines except 2'-OH A5, A6) [t44OMe (OH-5,6)]
Kd (VEGF165 [4]): 0.04 nM

GCGGUAGGAAGAAUUGGAAGCGC (ssRNA, 2'-F pyrimidines; 2'-OMe purines except 2'-OH G4 and A6)
binding result (VEGF164 [2]): binds

GACGAUGCGGUAGGAAGAAUUGGAAGCGC (ssRNA, 2'-F pyrimidines, 2'-OMe purines except 2'-OH A12, G22) [t22OMe (OH-12,22)]
Kd (VEGF165 [4]): 0.09 nM
